{"source": "paper PMC2592702", "biological_target": "recombinant mouse PrP, amino acids 23–231 (rmPrP_(23-231)) (mouse)", "assay": "ELISA"}
{"substance": "POM2 monoclonal antibody (IgG)", "values": [{"measurement": "stoichiometry N", "value": "> 2"}]}
